The values that follow come from patent publication US20210403565A1 (BIOATLA, published 2021).

As usually defined, the EC50 is the concentration needed to bring the measured effect to its halfway point.

Experiment [1] has as its target T1, human CTLA4 expressed on the cell surface of CHO cells (human, UniProt P16410 36-223).
T1 construct: whole, on cells; also called CHO-huCTLA4; huCTLA4
T1 sequence (looked up): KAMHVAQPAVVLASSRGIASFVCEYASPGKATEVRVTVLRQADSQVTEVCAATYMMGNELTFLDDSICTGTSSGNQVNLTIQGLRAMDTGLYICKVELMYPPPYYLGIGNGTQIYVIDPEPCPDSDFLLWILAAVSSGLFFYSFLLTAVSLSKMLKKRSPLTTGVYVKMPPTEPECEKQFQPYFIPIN
Briefly: FACS saturation, CHO-huCTLA-4, pH 7.4, MFI, titration up to about log 6.5; no unit in the table, unit from the axis Log Antibodies [ng/ml]. The method, then:
(§1) The amount of antibodies bound on the cells was quantified using anti-human IgG antibody conjugated to fluorophores. EC₅₀ values at pH 6.0 and 7.4 for binding to cells were calculated using the nonlinear fit (variable slope, four parameters) model built into GraphPad Prism software (version 7.03). The expression levels of human CTLA4 or cynomolgus CTLA4 on the surface of the CHO cells were determined using a BD QuantiBRITE™ PE kit.
(§2) Finally, saturations of the antibodies on the CHO cells expressing human or cynomolgus CTLA4 at pH 7.4 were also measured by FACS (FIGS. 8A-8B).

The target of experiment [2] is T2, human CTLA4 on CTLA4 Jurkat effector cells (Promega CTLA4 Blockade Assay) (human, UniProt P16410 36-223).
T2 sequence (looked up): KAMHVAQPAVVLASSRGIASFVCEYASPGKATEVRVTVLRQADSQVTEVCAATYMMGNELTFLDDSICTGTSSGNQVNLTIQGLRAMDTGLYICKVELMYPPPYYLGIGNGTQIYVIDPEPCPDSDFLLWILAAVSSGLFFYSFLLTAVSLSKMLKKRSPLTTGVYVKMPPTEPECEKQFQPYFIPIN
The experiment can be described thus: cell-based or functional assay.

For experiment [3], the target named is T3, recombinant human CTLA4 extracellular domain (human, UniProt P16410 36-161).
T3 construct: extracellular domain; also called huCTLA-4
T3 sequence (looked up): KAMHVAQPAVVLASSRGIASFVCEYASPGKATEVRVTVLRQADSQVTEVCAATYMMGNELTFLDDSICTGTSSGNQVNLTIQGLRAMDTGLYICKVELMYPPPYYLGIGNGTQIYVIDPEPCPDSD
Briefly: ELISA, wells coated with human CTLA4, assay pH 7.4; lot 6972 in His buffer, T0; unit from the axis Log[ng/mL]. The method, then:
(§3) Both ELISA and FACS analysis were used to measure the binding activity. […] The amount of bound antibodies was quantified using anti-human IgG antibody conjugated to HRP. The absorbance at 450 nm in each measurement was proportional to the amount of antibodies bound. […] EC50 value (in ng/mL) for binding to human CTLA4 was determined by absorbance at 450 nm against antibody concentration with Prism variable slope of four-parameter dose-response curve, which was calculated using the nonlinear fit (variable slope, four parameters) model built into GraphPad Prism software (version 7.03). The buffers tested included His buffer (His), Tris buffer (Tris), Glutamine buffer (Glu) and no buffer.

For experiment [4], the target named is T1, human CTLA4 expressed on the cell …. Briefly: FACS, cells expressing human CTLA4, assay pH 6.0, MFI; lot 6972 in Glu buffer, T2W; unit from the axis Log[ng/mL]. How it is done: (§4) The amount of bound antibodies was quantified using anti-human IgG antibody conjugated to fluorophores. The MFI in each reaction was proportional to the amount of antibodies bound. The EC₅₀ value (in ng/mL) for binding to human CTLA4 on cells was determined by MFI of the singlets population against antibody concentration with a Prism variable slope of four-parameter dose-response curve, which was calculated using the nonlinear fit (variable slope, four parameters) model built into GraphPad Prism software (version 7.03).
For orientation: Flow cytometry measures light scatter and fluorescence of single cells or particles in a stream.

Experiment [5] concerns the target T3, recombinant human CTLA4 extracellular …. The experiment can be described thus: ELISA, immobilised huCTLA-4, table head pH 7.0 (text: pH 7.4), Jun. 27, 2017. In general terms: An ELISA detects its analyte on a solid surface through an enzyme-linked reagent.
For experiment [6] the target is unchanged. The experiment can be described thus: ELISA, wells coated with human CTLA4, assay pH 6.0; lot 6978 in Tris buffer, T0; unit from the axis Log[ng/mL]. How it is done:
as §3

Experiment [7] shares this target. Briefly: ELISA, wells coated with human CTLA4, assay pH 6.0; lot 6978 in His buffer, T2W; unit from the axis Log[ng/mL]. The method, then:
as §3

Experiment [8] concerns the target T4, cynomolgus CTLA4 expressed on the cell surface of CHO cells (cynomolgus, UniProt G7PL88 36-223).
T4 construct: whole, on cells; also called CHO-cynoCTLA4
T4 sequence: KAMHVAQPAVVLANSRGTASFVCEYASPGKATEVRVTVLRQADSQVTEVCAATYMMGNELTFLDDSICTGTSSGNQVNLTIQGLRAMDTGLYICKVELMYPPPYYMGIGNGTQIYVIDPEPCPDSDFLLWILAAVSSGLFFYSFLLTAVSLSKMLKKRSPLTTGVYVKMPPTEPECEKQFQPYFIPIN
Briefly: FACS saturation, CHO-cynoCTLA-4, pH 7.4, MFI, titration up to about log 6.5; at baseline up to about log 4.5, about 100000 at the end, no plateau; no unit in the table, unit from the axis Log Antibodies [ng/ml]. How it is done: as §1, §2

For experiment [9], the target named is T3, recombinant human CTLA4 extracellular …. The experiment can be described thus: ELISA, wells coated with human CTLA4, assay pH 7.4; lot 6978 in His buffer, T0; curve still rising at log 3 (OD450 below 0.2), no plateau; unit from the axis Log[ng/mL]. How it is done:
as §3

Experiment [10] has as its target T1, human CTLA4 expressed on the cell …. Briefly: FACS, cells expressing human CTLA4, assay pH 7.4, MFI; lot 6978 in Glu buffer, T0; unit from the axis Log[ng/mL]. The method, then: as §4
For experiment [11] the target is unchanged. Briefly: FACS, cells expressing human CTLA4, assay pH 6.0, MFI; lot 6978 control without test buffer; same column repeated in FIG. 10E and FIG. 10F; unit from the axis Log[ng/mL]. The method, then:
as §4

Experiment [12] deals with T3, recombinant human CTLA4 extracellular …. Briefly: ELISA, wells coated with human CTLA4, assay pH 7.4; lot 6978 without test buffer; curve still rising at log 3 (OD450 about 0.2), no plateau; same column repeated in FIG. 9E and FIG. 9F; unit from the axis Log[ng/mL]. How it is done: as §3

B1: BA-087-05-19 (antibody, V domains shown)
VH: EVQLVESGGGLVQPGGSLRLSCAASGFTFSHYTMHWVRQAPGKGLEWVSFISYDGNNKYYADSVKGRFTISRDNSKNTLYLQMNSLRAEDTAVYYCARTGWLGPFDYWGQGTLVTVSS
VL: AIQLTQSPSSLSASVGDRVTITCRASQYVGSSYLAWYLQKPGQSPQLLIYGAFSRATGIPARFSGSGSGTEFTLTISSLQSEDFAVYYCQQDGSSPWTFGQGTKVEIK
notes: Detected with anti-human IgG and a molecular weight of 146 kDa was used in SPR, so it was tested as a whole IgG; also called BA-087-05-019; BA-087-05-19 (# 6972)
B1: the EC50 in [1] amounted to 0.846 mg/L; in experiment [3], 0.0544 mg/L; in experiment [4], 0.267 mg/L; in experiment [5], 0.0358 mg/L. Moreover, the “EC50 of bioluminescence (RLUs), Promega CTLA4 Blockade Assay, pH 6.0; unit from the axis Log (µg/mL)” value in experiment [2] came out at 1.2 µg/mL.

B2: BA-087-08-32 (antibody, V domains shown)
VH: EVQLVQSGAEVKKPGATVKISCKVSGFTFSHYTMHWIRQSPSRGLEWLGFISYDGNYKYYADSVKGRFTISRDNAKNSLYLQMNSLRAEDTAVYYCARTGWLGPFDYWGQGTLVTVSS
VL: EIVMTQSPATLSVSPGERATLSCRASQSVGSSYLAWYQQKPGKAPKLLIYGAFSRATGVPSRFSGSGSGTDFTLTISSLQPEDFATYYCQQDGSSPWTFGQGTKVEIK
notes: Detected with anti-human IgG and a molecular weight of 146 kDa was used in SPR, so it was tested as a whole IgG; also called BA-087-08-032; BA-087-08-32 (# 6978)
On to B2, for which the EC50 in experiment [6] came out at 0.0171 mg/L; in [7], 0.0441 mg/L; in [8], 1650 mg/L; in [9], 0.491 mg/L; in experiment [10], 0.814 mg/L; in [11], 0.158 mg/L. The EC50 in experiment [12] is 1.14 mg/L.
